Measured values reported in article PMC2746283, “BtubA-BtubB Heterodimer Is an Essential Intermediate in Protofilament Assembly” (PLoS ONE, 2009).
Changes are numbered by the printed parent chain. Numbers in names are those of the source.

B1: BtubB, wild type (natural protein)
chain: VREILSIHVGQCGNQIADSFWRLALREHGLTEAGTLKEGSNAAANSNMEVFFHKVRDGKYVPRAVLVDLEPGVIARIEGGDMSQLFDESSIVRKIPGAANNWARGYNVEGEKVIDQIMNVIDSAVEKTKGLQGFLMTHSIGGGSGSGLGSLILERLRQAYPKKRIFTFSVVPSPLISDSAVEPYNAILTLQRILDNADGAVLLDNEALFRIAKAKLNRSPNYMDLNNIIALIVSSVTASLRFPGKLNTDLSEFVTNLVPFPGNHFLTASFAPMRGAGQEGQVRTNFPDLARETFAQDNFTAAIDWQQGVYLAASALFRGDVKAKDVDENMATIRKSLNYASYMPASGGLKLGYAETAPEGFASSGLALVNHTGIAAVFERLIAQFDIMFDNHAYTHWYENAGVSRDMMAKARNQIATLAQSYRDAS
notes: BtubB, bacterial tubulin-like protein of Prosthecobacter; the species is printed only for BtubA (P. dejongeii); also called B-wt; BtubB WT; source: E. coli, purified as described previously [3], with an added Sephacryl HR-100 column step; not shown: His tag, N-terminal, kept
B2: BtubB-N100E (natural protein)
chain: B1 chain with N100E
notes: BtubB of Prosthecobacter (species printed only for BtubA: P. dejongeii) with the point mutation N100E; also called within-dimer mutant of BtubB; source: E. coli, purified as described previously [3], with an added Sephacryl HR-100 column step; not shown: His tag, N-terminal, kept
B3: BtubB-D249K (natural protein)
chain: B1 chain with D249K
notes: BtubB of Prosthecobacter (species printed only for BtubA: P. dejongeii) with the point mutation D249K; The running text twice calls it BtubA-D249K; also called between-dimer mutant on the bottom of BtubB; source: E. coli, purified as described previously [3], with an added Sephacryl HR-100 column step; not shown: His tag, N-terminal, kept
B4: BtubA-V179K (natural protein, P. dejongeii)
chain: MKVNNTIVVSIGQAGNQIAASFWKTVCLEHGIDPLTGQTAPGVAPRGNWSSFFSKLGESSSGSYVPRAIMVDLEPSVIDNVKATSGSLFNPANLISRTEGAGGNFAVGYLGAGREVLPEVMSRLDYEIDKCDNVGGIIVLHAIGGGTGSGFGALLIESLKEKYGEIPVLSCAVLPSPQKSSVVTEPYNTVFALNTLRRSADACLIFDNEALFDLAHRKWNIESPTVDDLNLLITEALAGITASMRFSGFLTVEITLRELLTNLVPQPSLHFLMCAFAPLTPPDRSKFEELGIEEMIKSLFDNGSVFAACSPMEGRFLSTAVLYRGIMEDKPLADAALAAMREKLPLTYWIPTAFKIGYVEQPGISHRKSMVLLANNTEIARVLDRICHNFDKLWQRKAFANWYLNEGMSEEQINVLRASAQELVQSYQVAEESGAKAKVQDSAGDTGMRAAAAGVSDDARGSMSLRDLVDRRR
B5: BtubA, wild type (natural protein, P. dejongeii)
chain: B4 chain with K179V
B6: BtubA-E258K (natural protein, P. dejongeii)
chain: B4 chain with K179V, E258K

Key:
BtubA, wild type = target: B5; assay: AUC; sedimentation equilibrium of BtubA + BtubB mixtures, 20°C, 10,000-14,000 rpm, HMK buffer (50 mM Hepes, 5 mM MgAc, 350 mM KAc, 1 mM EGTA, pH 7.7), no GTP; molar ratios 1:4 to 4:1, each protein 8 to 32 µM; global fit to a monomer-dimer model (HeteroAnalysis); conditions: both partners purified
BtubA-E258K = target: B6; assay: as above; conditions: both partners purified
BtubA-V179K = target: B4; assay: as above; conditions: both partners purified
BtubB, wild type = target: B1; assay: cell-based or functional assay
BtubB-D249K = target: B3; assay: cell-based or functional assay
BtubB-N100E = target: B2; assay: cell-based or functional assay

Row | GTPase activity of the 1:1 mixture, per BtubB (GTP regeneration, coupled NADH assay, ∼29°C) (BtubB, wild type) | GTPase activity of the 1:1 mixture, per BtubB (GTP regeneration, coupled NADH assay, ∼29°C) (BtubB-D249K) | Binder | further results
1 |  |  | B1 | Kd (BtubA, wild type): 7.3 µM
2 |  |  | B2 | Kd (BtubA-E258K): 61 µM
3 |  |  | B3 | Kd (BtubA-V179K): 3.2 µM
4 | 0.072 GTP min^−1 Btub^−1 | 0.079 GTP min^−1 Btub^−1 | B4 | 
5 |  | 0.077 GTP min^−1 Btub^−1 | B5 | 
6 | 0.088 GTP min^−1 Btub^−1 |  | B6 | GTPase activity of the 1:1 mixture, per BtubB (GTP regeneration, coupled NADH assay, ∼29°C) (BtubB-N100E): 0.098 GTP min^−1 Btub^−1
